{"source": "paper doi:10.1101/2022.09.08.507146", "about": "“Cytomotive actins and tubulins share a polymerisation switch mechanism conferring robust dynamics” (bioRxiv, 2022)", "proteins": {"B1": {"name": "Prosthecobacter dejongeii BtubA*B heterodimer (BtubA* R284G, R286D, F287G with BtubB) (complex)", "chain 1": "MKVNNTIVVSIGQAGNQIAASFWKTVCLEHGIDPLTGQTAPGVAPRGNWSSFFSKLGESSSGSYVPRAIMVDLEPSVIDNVKATSGSLFNPANLISRTEGAGGNFAVGYLGAGREVLPEVMSRLDYEIDKCDNVGGIIVLHAIGGGTGSGFGALLIESLKEKYGEIPVLSCAVLPSPQVSSVVTEPYNTVFALNTLRRSADACLIFDNEALFDLAHRKWNIESPTVDDLNLLITEALAGITASMRFSGFLTVEISLRELLTNLVPQPSLHFLMCAFAPLTPPDGSDGEELGIEEMIKSLFDNGSVFAACSPMEGRFLSTAVLYRGIMEDKPLADAALAAMREKLPLTYWIPTAFKIGYVEQPGISHRKSMVLLANNTEIARVLDRICHNFDKLWQRKAFANWYLNEGMSEEQINVLRASAQELVQSYQVAEESGAKAKVQDSAGDTGMRAAAAGVSDDARGSMSLRDLVDRRR", "chain 2": "MREILSIHVGQCGNQIADSFWRLALREHGLTEAGTLKEGSNAAANSNMEVFFHKVRDGKYVPRAVLVDLEPGVIARIEGGDMSQLFDESSIVRKIPGAANNWARGYNVEGEKVIDQIMNVIDSAVEKTKGLQGFLMTHSIGGGSGSGLGSLILERLRQAYPKKRIFTFSVVPSPLISDSAVEPYNAILTLQRILDNADGAVLLDNEALFRIAKAKLNRSPNYMDLNNIIALIVSSVTASLRFPGKLNTDLSEFVTNLVPFPGNHFLTASFAPMRGAGQEGQVRTNFPDLARETFAQDNFTAAIDWQQGVYLAASALFRGDVKAKDVDENMATIRKSLNYASYMPASGGLKLGYAETAPEGFASSGLALVNHTGIAAVFERLIAQFDIMFDNHAYTHWYENAGVSRDMMAKARNQIATLAQSYRDAS", "notes": "BtubA*, as m5; BtubB, as m6; The heterodimer as the unit that polymerises into single protofilaments; also called BtubA*B M-loop mutant; mutant BtubAB; source: E. coli C41(DE3), co-expressed and co-purified (HiTrap Q XL, Sephacryl S300, Mono Q)"}}, "biological_target": "the molecule itself", "assay": "cryo-EM structure; BtubA*B single protofilaments, 0.21 mg/mL in HMK100 pH 7.7 with 0.5 mM GMPCPP, 45 s at 20 °C", "data": [{"protein": "B1", "values": [{"measurement": "binding result", "value": "binds"}]}]}
